For 17 molecules, interaction score results are on record in PMC10397247.

One assay concerns the target T1, Core_INNN-es_KKKE.
T1 chain: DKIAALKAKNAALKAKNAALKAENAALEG
In words: two-hybrid library CCmax.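 Note: natural log of median RNA to DNA barcode read ratio; higher means stronger binding.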 The settings on record: mean of both orientations.

A further assay concerns the target T2, Core_NNNN-es_KEKE.
T2 chain: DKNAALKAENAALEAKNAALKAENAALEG
In words: two-hybrid library CCmax.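 Note: natural log of median RNA to DNA barcode read ratio; higher means stronger binding.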 The settings on record: mean of both orientations.

The target of a further assay is T3, Core_IINN-es_KEEK.
T3 chain: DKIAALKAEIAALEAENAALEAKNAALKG
In words: two-hybrid library CCmax.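 Note: natural log of median RNA to DNA barcode read ratio; higher means stronger binding.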 The settings on record: mean of both orientations.

Another assay addresses T4, Core_INII-es_KEKK.
T4 chain: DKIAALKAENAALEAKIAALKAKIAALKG
In words: two-hybrid library CCmax.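 Note: natural log of median RNA to DNA barcode read ratio; higher means stronger binding.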 The settings on record: mean of both orientations.

Another assay has as its target T5, Core_IINN-es_KKKE.
T5 chain: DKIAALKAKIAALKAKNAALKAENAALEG
In words: two-hybrid library CCmax.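 Note: natural log of median RNA to DNA barcode read ratio; higher means stronger binding.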 The settings on record: mean of both orientations.

A further assay addresses T6, Core_NIII-es_KKKK.
T6 chain: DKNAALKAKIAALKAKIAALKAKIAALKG
In words: two-hybrid library CCmax.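 Note: natural log of median RNA to DNA barcode read ratio; higher means stronger binding.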 The settings on record: mean of both orientations.

Another assay addresses T7, Core_NNIN-es_KKEE.
T7 chain: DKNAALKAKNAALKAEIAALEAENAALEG
In words: two-hybrid library CCmax. The settings on record: mean of both orientations.

A further assay concerns the target T8, 4H2931-bH.
T8 chain: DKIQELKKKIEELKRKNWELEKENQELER
In words: two-hybrid library CCNG1.

The target in another assay is T9, 4H2444-bH.
T9 chain: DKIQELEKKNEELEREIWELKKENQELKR
In words: two-hybrid library CCNG1.

The target in the next assay is T10, 4H3364-bH.
T10 chain: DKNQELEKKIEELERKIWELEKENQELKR
In words: two-hybrid library CCNG1.

In another assay the target is T11, 4H3297-bH.
T11 chain: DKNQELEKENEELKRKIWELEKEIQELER
In words: two-hybrid library CCNG1.

Another assay deals with T12, 4H730-bH.
T12 chain: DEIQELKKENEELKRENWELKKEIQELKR
In words: two-hybrid library CCNG1.

The target in the next assay is T13, 4H235-bH.
T13 chain: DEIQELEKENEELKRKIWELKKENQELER
In words: two-hybrid library CCNG1.

The next assay addresses T14, 4H2760-bH.
T14 chain: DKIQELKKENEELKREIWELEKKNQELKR
In words: two-hybrid library CCNG1.

The target in another assay is T15, 4H2253-bH.
T15 chain: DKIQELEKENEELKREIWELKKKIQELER
In words: two-hybrid library CCNG1.

In the next assay the target is T16, 4H2143-bH.
T16 chain: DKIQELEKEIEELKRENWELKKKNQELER
In words: two-hybrid library CCNG1.

The target of another assay is T17, 4H56-bH.
T17 chain: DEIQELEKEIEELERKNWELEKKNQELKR
In words: two-hybrid library CCNG1.

A further assay addresses T18, 4H949-bH.
T18 chain: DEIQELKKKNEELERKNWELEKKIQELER
In words: two-hybrid library CCNG1.

A further assay addresses T19, 4H2162-bH.
T19 chain: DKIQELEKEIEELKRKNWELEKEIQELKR
In words: two-hybrid library CCNG1.

The next assay concerns the target T20, 4H166-bH.
T20 chain: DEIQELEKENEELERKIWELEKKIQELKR
In words: two-hybrid library CCNG1.

The next assay addresses T21, 4H2233-bH.
T21 chain: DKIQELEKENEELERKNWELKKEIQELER
In words: two-hybrid library CCNG1.

The target in a further assay is T22, 4H967-bN.
T22 chain: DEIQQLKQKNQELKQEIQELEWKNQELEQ
In words: two-hybrid library CCNG1.

The target in the next assay is T23, 4H796-bH.
T23 chain: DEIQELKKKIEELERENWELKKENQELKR
In words: two-hybrid library CCNG1.

Another assay has as its target T24, 4H2859-bH.
T24 chain: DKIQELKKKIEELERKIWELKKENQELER
In words: two-hybrid library CCNG1.

For a further assay, the target named is T25, 4H349-bH.
T25 chain: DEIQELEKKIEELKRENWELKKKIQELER
In words: two-hybrid library CCNG1.

In a further assay the target is T26, 4H932-bH.
T26 chain: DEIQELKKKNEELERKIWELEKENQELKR
In words: two-hybrid library CCNG1.

The target in the next assay is T27, 4H2518-bH.
T27 chain: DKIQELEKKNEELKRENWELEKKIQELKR
In words: two-hybrid library CCNG1.

Another assay addresses T28, 4H3041-bH.
T28 chain: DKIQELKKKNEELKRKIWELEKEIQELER
In words: two-hybrid library CCNG1.

The target in the next assay is T29, 4H2585-bH.
T29 chain: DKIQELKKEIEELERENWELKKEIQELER
In words: two-hybrid library CCNG1.

The next assay concerns the target T30, 4H264-bH.
T30 chain: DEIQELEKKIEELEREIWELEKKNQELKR
In words: two-hybrid library CCNG1.

The next assay has as its target T31, 4H3381-bH.
T31 chain: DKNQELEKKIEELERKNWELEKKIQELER
In words: two-hybrid library CCNG1.

For another assay, the target named is T32, Core_INII-es_KEEE.
T32 chain: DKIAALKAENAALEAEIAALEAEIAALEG
In words: two-hybrid library CCmax. The settings on record: mean of both orientations.

The target of assay [1] is T33, P4SC1.
T33 chain: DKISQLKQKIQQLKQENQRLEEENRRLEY
In words: two-hybrid library CCNG1.

Assay [2] addresses T33, P4SC1. In words: two-hybrid library CCmax. The settings on record: mean of both orientations.
The target of the next assay is T34, P2bH1.
T34 chain: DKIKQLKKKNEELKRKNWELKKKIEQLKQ
In words: two-hybrid library CCNG1.

The target of another assay is T35, P6bH1.
T35 chain: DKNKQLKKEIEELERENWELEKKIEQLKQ
In words: two-hybrid library CCNG1.

In the next assay the target is T36, P10bH1.
T36 chain: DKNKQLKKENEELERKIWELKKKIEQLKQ
In words: two-hybrid library CCNG1.

For the next assay, the target named is T37, P11bH1.
T37 chain: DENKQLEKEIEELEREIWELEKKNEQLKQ
In words: two-hybrid library CCNG1.

Another assay concerns the target T38, P9bH1.
T38 chain: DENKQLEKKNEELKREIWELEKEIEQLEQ
In words: two-hybrid library CCNG1.

The target in a further assay is T39, P1bH1.
T39 chain: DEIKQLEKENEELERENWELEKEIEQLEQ
In words: two-hybrid library CCNG1.

For a further assay, the target named is T40, P7bH1.
T40 chain: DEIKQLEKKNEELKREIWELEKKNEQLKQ
In words: two-hybrid library CCNG1.

The next assay addresses T41, P8bH1.
T41 chain: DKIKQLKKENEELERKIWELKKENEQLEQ
In words: two-hybrid library CCNG1.

The target in the next assay is T42, P12bH1.
T42 chain: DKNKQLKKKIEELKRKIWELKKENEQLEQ
In words: two-hybrid library CCNG1.

The target in the next assay is T43, P5bH1.
T43 chain: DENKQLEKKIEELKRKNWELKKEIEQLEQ
In words: two-hybrid library CCNG1.

A further assay concerns the target T44, P3bH1.
T44 chain: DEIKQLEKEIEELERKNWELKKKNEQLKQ
In words: two-hybrid library CCNG1.

The next assay deals with T45, P4bH1.
T45 chain: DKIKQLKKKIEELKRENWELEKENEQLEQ
In words: two-hybrid library CCNG1.

For another assay, the target named is T46, Core_INNI-es_KKEK.
T46 chain: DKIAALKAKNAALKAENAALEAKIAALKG
In words: two-hybrid library CCmax. The settings on record: mean of both orientations.

The next assay concerns the target T47, Core_ININ-es_KKEE.
T47 chain: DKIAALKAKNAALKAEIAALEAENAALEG
In words: two-hybrid library CCmax. The conditions noted are these: mean of both orientations.

For another assay, the target named is T48, Core_INNN-es_KKEK.
T48 chain: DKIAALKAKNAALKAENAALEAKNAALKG
In words: two-hybrid library CCmax. The conditions noted are these: mean of both orientations.

Another assay addresses T49, Core_NIIN-es_KKKK.
T49 chain: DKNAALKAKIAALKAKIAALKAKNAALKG
In words: two-hybrid library CCmax. The conditions noted are these: mean of both orientations.

The next assay has as its target T50, Core_INNI-es_KEKE.
T50 chain: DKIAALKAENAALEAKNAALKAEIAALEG
In words: two-hybrid library CCmax. The settings on record: mean of both orientations.

For another assay, the target named is T51, Core_INNN-es_KKKK.
T51 chain: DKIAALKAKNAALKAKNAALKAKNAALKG
In words: two-hybrid library CCmax. The conditions noted are these: mean of both orientations.

Molecule DEIAALEAENAALEAENAALEAKNAALKG [Core_INNN-es_EEEK] displayed an interaction score in the assay with Core_INNN-es_KKKE of 2.01.
In turn, DENAALEAKNAALKAENAALEAKNAALKG [Core_NNNN-es_EKEK] registered an interaction score with Core_NNNN-es_KEKE of -0.668.
In the assay with Core_IINN-es_KEEK, DEIAALEAKIAALKAKNAALKAENAALEG [Core_IINN-es_EKKE] came in with an interaction score of 1.87.
As for DEIAALEAKNAALKAEIAALEAEIAALEG [Core_INII-es_EKEE], the interaction score with Core_INII-es_KEKK amounted to 1.83.
With DEIAALEAEIAALEAENAALEAKNAALKG [Core_IINN-es_EEEK], the interaction score in the assay with Core_IINN-es_KKKE is 2.03.
DENAALEAEIAALEAEIAALEAEIAALEG [Core_NIII-es_EEEE] yielded an interaction score in the assay with Core_NIII-es_KKKK of 2.01.
In the case of DENAALEAENAALEAKIAALKAKNAALKG [Core_NNIN-es_EEKK], the interaction score in the assay with Core_NNIN-es_KKEE was found to be 1.83.
On to DEIQELEKENEELERKIWELEKKIQELKR [4H166-bH], for which the interaction score was 1.25 with 4H2931-bH; 0.192 with 4H2444-bH; -1.32 with 4H3364-bH; 1.62 with 4H3297-bH; 0.00471 with 4H730-bH; -0.624 in the assay with 4H235-bH. For the same molecule, the interaction score with 4H2760-bH is 0.896; with 4H2253-bH, 1.03; with 4H2143-bH, 0.23; with 4H56-bH, -1.05; in the assay with 4H949-bH, 0.814; with 4H2162-bH, 1.49. Moreover, the interaction score is 0.0371 in the assay with 4H166-bH; 0.81 with 4H2233-bH; -0.508 with 4H967-bN; 0.588 with 4H796-bH; 1.65 in the assay with 4H2859-bH; 0.968 with 4H349-bH. Also, the interaction score in the assay with 4H932-bH is 0.193; with 4H2518-bH, 1.54; with 4H3041-bH it was 1.58; in the assay with 4H2585-bH it was 0.621; in the assay with 4H264-bH, 0.0745; with 4H3381-bH it was 0.522.
With DEIAALEAKNAALKAKIAALKAKIAALKG [Core_INII-es_EKKK], in the assay with Core_INII-es_KEEE, the interaction score was 2.08.
As to DEIQQLEEEISQLEYKNYALKAKNEELKR [P3SC1], the interaction score came out at 2.22 with P4SC1 [1] and 1.43 with P4SC1 [2].
Consider DKNKQLKKENEELERKIWELKKKIEQLKQ [P10bH1], for which the interaction score is -1.33 with P2bH1; 0.126 with P6bH1; 0.178 with P10bH1; 0.862 in the assay with P11bH1; 1.04 with P9bH1; 1.14 with P1bH1. The interaction score is 0.654 in the assay with P7bH1; -0.375 with P8bH1; -0.838 with P12bH1; -0.973 with P5bH1; 1.35 with P3bH1; -0.889 in the assay with P4bH1.
As for DEIAALEAENAALEAKNAALKAEIAALEG [Core_INNI-es_EEKE], in the assay with Core_INNI-es_KKEK, the interaction score amounted to 2.03.
Regarding DEIAALEAENAALEAKIAALKAKNAALKG [Core_ININ-es_EEKK], the interaction score with Core_ININ-es_KKEE came to 2.03.
Molecule DEIAALEAENAALEAKNAALKAENAALEG [Core_INNN-es_EEKE] showed an interaction score with Core_INNN-es_KKEK of 1.84.
In the assay with Core_NIIN-es_KKKK, DENAALEAEIAALEAEIAALEAENAALEG [Core_NIIN-es_EEEE] showed an interaction score of 1.68.
DEIAALEAKNAALKAENAALEAKIAALKG [Core_INNI-es_EKEK] yielded an interaction score with Core_INNI-es_KEKE of 2.27.
The molecule DEIAALEAENAALEAENAALEAENAALEG [Core_INNN-es_EEEE] returned an interaction score with Core_INNN-es_KKKK of 2.18.
